From US20210122810A1 (Janssen / Centocor, published 2021)

Columns and labels:
[1] = biological target: T1, Tau peptide encompassing residues 299-318 (human); assay: isothermal titration calorimetry (ratio of the KD values against CBTAU-27.1)
T1 construct: also called Tau protein (peptide)
T1 peptide: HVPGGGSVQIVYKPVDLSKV

[2] = biological target: T1, Tau peptide encompassing residues …; assay: isothermal titration calorimetry, peptide in cell titrated with IgG, PBS pH 7.4, one set of sites model
Experimental: Affinities of the binding molecules of the present invention were determined using a Microcal Auto-iTC200 isothermal titration calorimeter (Malvern). Tau and tau antibodies were dialysed to PBS, pH 7.4 to ensure perfect buffer matching conditions. […] Data was fitted according to a one set of sites model using Microcal PEAQ-ITC Analysis Software (Malvern).

- fold improvement in affinity relative to CBTAU-27.1 [1]: 50 fold
- Kd [2]: 12.8 nM
B1: antibody of the present invention (antibody, V domains shown)
VH: QVQLVESGPEMRKPGESLKISCKTSGYIFSDYWTAWVRQLPGKGLQWMGIIYSGDSDTRYHPSVQGHVTMSTDSSLTTAYLQWSSLKASDTGIYYCARLDARVDAGWQLDSWGQGTLVTVSS
VL: DIQLTQSPDSLAVSLGERATINCKSSQSVFYRDNNKNYLAWYQHKSGQPPKLLFFWASSRESGVSDRFSGSGSGTDFTLTIDNLQAEDVALYYCQHYFNIPHNFGQGTKLEIK
notes: also called antibody according to the present invention
